B1: Transgelin-2 (Homo sapiens), P37802 (parent)
chain: MANRGPAYGLSREVQQKIEKQYDADLEQILIQWITTQCRKDVGRPQPGRENFQNWLKDGTVLCELINALYPEGQAPVKKIQASTMAFKQMEQISQFLQAAERYGINTTDIFQTVDLWEGKNMACVQRTLMNLGGLAVARDDGLFSGDPNWFPKKSKENPRNFSDNQLQEGKNVIGLQMGTNRGASQAGMTGYGMPRQIL

Variants of: B1
Settings: with actb_human ACTB

| Variant | effect of a mutation on the interaction |
| --- | --- |
| S163A | increasing interaction |
| S163D | decreasing interaction |
| S83D | decreasing interaction |
| S83A | increasing interaction |

Source: IntAct's records for PubMed 21577206
